Where two headings read alike, the source gives them in different places. Non-standard residues stand in square brackets, D forms with d. Residues, ends and D or L forms follow the SMILES beside them. *: point of attachment. Dolaproine = CO[C@@H]([C@@H]1CCCN1)[C@@H](C)C(=O)O; Dil = CC[C@H](C)[C@H](NC)[C@@H](CC(=O)O)OC; X1 = C[C@@H](N*)[C@@H](O)c1ccccc1; NMeV = CN[C@H](C(=O)O)C(C)C

The results in this text go back to patent EP4616869A1, “FAP TARGETED ANTIBODY-DRUG CONJUGATES” (Oncomatryx Biopharma, S.L., priority 2024, dated 2025).

In data set [1] the target is Fibroblast activation protein (FAP) on FAP-expressing HT1080-FAP cells (UniProt Q12884). The data set is described as follows: cell-based or functional assay.
Data set [2] has the same target. The data set is described as follows: flow cytometry on HT1080-FAP cells, PE-labeled anti-human Fc secondary antibody, MFI.
For data set [3], the system named is HCT116 (low Pgp expression). The data set is described as follows: Cell viability assay (crystal violet staining), payloads, HCT116. Type of data set: cell-based. The conditions noted are these: HCT116, 48 hours incubation. The method, then:
(§1) The cytotoxic activity of A1B1 cytolysin and MMAE payloads was analyzed via cell-viability assay using the colorectal cancer cell lines HCT15 (high Pgp expression) and HCT116 (low Pgp expression). The day before the assay, cells were seeded and cultivated overnight at 37 °C. Titration of the payloads diluted in medium was added to the cells and incubated for 48 hours at 37 °C. Finally, cell viability was analyzed by crystal violet staining.

For data set [4], the system named is HCT15 (high Pgp expression). The data set is described as follows: Cell viability assay (crystal violet staining), payloads, HCT15. Format: cell-based. The conditions noted are these: HCT15, 48 hours incubation, read-out: IC 50 HCT15. The method, then: as §1
The test system of data set [5] is HT1080-WT cells. The data set can be described thus: ADC cytotoxic activity, cell viability assay, HT1080-WT. The conditions noted are these: read-out: Concentration of half maximal killing HT1080 WT. Format: cell-based. The method, then:
(§2) OMTX105 cytotoxic activity was analyzed via cell viability assay using HT1080-FAP and HT1080-WT cells. […] Here, a concentration of half-maximal killing of 64 pM for OMTX105 was determined compared to 750 pM for OMTX705. […] Specificity ratio between both cell lines was 1,205 for OMTX105 while for OMTX705 the value was 82 (Figure 3). Table 4: Comparative in vitro binding and cytotoxic activity values of OMTX105 and OMTX705 ADCs

Data set [6] deals with Panc007 pancreatic ductal adenocarcinoma patient derived xenograft. The data set is described as follows: In vivo efficacy and tolerability in the Panc007 patient-derived xenograft model. On the set-up: species or system female Athymic nude-Foxn1 (nude/nude) mice. To be noted: for TGI value: day 28. The method, then: The antitumor activity of OMTX105 vs OMTX705 was evaluated in the Panc007 pancreatic ductal adenocarcinoma patient derived xenograft mode in female Athymic nude-Foxn1 (nude/nude) mice.
Both OMTX105 and OMTX705 were administered intravenously at 5 and 20 mg/kg once a week for 4 weeks.

The test system of data set [7] is HT1080-FAP cells. The data set is described as follows: ADC cytotoxic activity, cell viability assay, HT1080-FAP. Format: cell-based. The method, then: as §2
Data set [8] deals with HT1080-FAP transfected cells. The data set is described as follows: In vivo efficacy and tolerability in the HT1080-FAP tumor model with huPBMCs. On the set-up: species or system female NOD scid gamma (NSG) mice. On the procedure:
To evaluate the in vivo efficacy of OMTX1 05 and OMTX705, both ADCs were tested in female NOD scid gamma (NSG) mice co-inoculated with HT1080-FAP transfected cells and huPBMCs.
After 7 days, mice were randomized according to tumor size in the different treatment groups. Treatments with OMTX105 and OMTX705 as single agents were initiated, both with a weekly intravenous dose of 20 mg/kg over 3 weeks.
Tumor volume and animal weight were measured 3 times a week to monitor the evolution of tumor growth and weight change upon treatment.

Data set [9] deals with T1, Fibroblast activation protein (FAP) on FAP-expressing HT1080-FAP cells (UniProt Q12884 1-760, limits assumed).
T1 construct: whole, on cells; also called FAPα
T1 sequence (looked up): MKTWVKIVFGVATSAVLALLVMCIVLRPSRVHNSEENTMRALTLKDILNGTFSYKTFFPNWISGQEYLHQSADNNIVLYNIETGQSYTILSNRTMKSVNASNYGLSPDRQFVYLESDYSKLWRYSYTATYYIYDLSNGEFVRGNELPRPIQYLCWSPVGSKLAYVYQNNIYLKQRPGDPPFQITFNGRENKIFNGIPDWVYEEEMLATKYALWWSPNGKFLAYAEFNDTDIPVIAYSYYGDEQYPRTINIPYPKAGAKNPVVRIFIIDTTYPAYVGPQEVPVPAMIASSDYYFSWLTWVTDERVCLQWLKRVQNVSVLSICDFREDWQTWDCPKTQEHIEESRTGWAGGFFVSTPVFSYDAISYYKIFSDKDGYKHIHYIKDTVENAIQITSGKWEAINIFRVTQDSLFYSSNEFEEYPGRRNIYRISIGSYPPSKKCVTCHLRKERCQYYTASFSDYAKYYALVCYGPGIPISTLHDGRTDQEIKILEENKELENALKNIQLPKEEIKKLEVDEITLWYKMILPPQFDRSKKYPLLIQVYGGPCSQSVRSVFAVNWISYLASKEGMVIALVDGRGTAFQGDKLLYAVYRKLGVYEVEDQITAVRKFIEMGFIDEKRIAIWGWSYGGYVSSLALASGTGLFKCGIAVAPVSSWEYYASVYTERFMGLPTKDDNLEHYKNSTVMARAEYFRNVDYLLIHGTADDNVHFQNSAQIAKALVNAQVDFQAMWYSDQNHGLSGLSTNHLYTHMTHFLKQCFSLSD
The data set is described as follows: flow cytometry on HT1080-FAP cells, PE-labeled anti-human Fc secondary antibody, MFI.

In data set [10] the target is T1, Fibroblast activation protein (FAP) on …. The data set is described as follows: cell-based or functional assay.
The mark [11] stands for this setting: 5 and 20 mg/kg intravenously once a week for 4 weeks.
The mark [12] stands for this setting: weekly intravenous dose of 20 mg/kg over 3 weeks.

In the case of “OMTX705 antibody-drug conjugate (anti-FAP monoclonal antibody conjugated to a cytolysin payload)”, in data set [1], the Concentration of half maximal killing, HT1080FAP (cell viability assay) turned out to be 750 pM; the Specificity ratio between HT1080WT and HT1080FAP (cell viability assay) was 82. The molecule also returned an EC50 in data set [2] of 0.204 nM.
`CC[C@H](C)[C@@H]([C@@H](CC(=O)N1CCC[C@H]1[C@H](OC)[C@@H](C)C(=O)N[C@H](C)[C@@H](O)c1ccccc1)OC)N(C)C(=O)[C@@H](NC(=O)[C@@H](NC)C(C)C)C(C)C` [MMAE, Monomethyl auristatin E] (H-[NMeV]V[Dil][Dolaproine]-X1): the IC50 in [3] worked out at 2.5 ± 0.4 nM; in data set [3] (Homo sapiens, HCT-116, 48 h) it was 3 nM; in data set [4], 39.5 ± 10.1 nM; in [4] (Homo sapiens, HCT-15, 48 h), 40 nM.

B1: OMTX105: anti-FAP IgG antibody conjugated with the drug-linker vcMMAE, through thiol-based reaction on the cysteine residues of the antibody (conjugate)
heavy: QVQLVQSGAEVKKPGASVKVSCKASGYTFTENIIHWVRQAPGQGLEWMGWFHPGSGSIKYNEKFKDRVTMTADTSTSTVYMELSSLRSEDTAVYYCARHGGTGRGAMDYWGQGTLVTVSSASTKGPSVFPLAPSSKSTSGGTAALGCLVKDYFPEPVTVSWNSGALTSGVHTFPAVLQSSGLYSLSSVVTVPSSSLGTQTYICNVNHKPSNTKVDKKVEPKSCDKTHTCPPCPAPPVAGPSVFLFPPKPKDTLMISRTPEVTCVVVDVSHEDPEVKFNWYVDGVEVHNAKTKPREEQYNSTYRVVSVLTVLHQDWLNGKEYKCKVSNKGLPSSIEKTISKAKGQPREPQVYTLPPSRDELTKNQVSLTCLVKGFYPSDIAVEWESNGQPENNYKTTPPVLDSDGSFFLYSKLTVDKSRWQQGNVFSCSVMHEALHNHYTQKSLSLSPGK
light: DIQMTQSPSSLSASVGDRVTITCRASKSVSTSAYSYMHWYQQKPGKAPKLLIYLASNLESGVPSRFSGSGSGTDFTLTISSLQPEDFATYYCQHSRELPYTFGQGTKLEIKRTVAAPSVFIFPPSDEQLKSGTASVVCLLNNFYPREAKVQWKVDNALQSGNSQESVTEQDSKDSTYSLSSTLTLSKADYEKHKVYACEVTHQGLSSPVTKSFNRGEC
As for B1, the EC50 came to 77.2 nM in data set [5] and 0.064 ± 0.033 nM in data set [7] (HT1080-FAP cells, read-out: Concentration of half maximal killing HT1080FAP). The TGI value in data set [6] (5 mg/kg intravenously once a week for 4 weeks) came to 85%; in data set [6] (20 mg/kg intravenously once a week for 4 weeks), 136%. The “adverse effects or animal death” value in [6] (setting [11]) is on record as “no adverse effects or animal death”. In addition, in [6] (setting [11]), the “tolerability (body weight data and clinical observations)” value is listed as “well tolerated”. Moreover, the weight loss entry in data set [6] (both 5 mg/kg and 20 mg/kg, after 56 days) is reported as “no weight loss observed”. The “Specificity ratio between HT1080WT and HT1080FAP” value in [7] (ratio of half maximal killing concentrations, HT1080-WT to HT1080-FAP) was 1,205. The tolerability result in [8] (20 mg/kg, 21-day test period) is “well tolerated”. The complete response entry in data set [8] (setting [12]) is on record as “complete response in this model at day 7”. In addition, the “percentage tumor growth inhibition (TGI)” value in [8] (setting [12]) was found to be 104.98%. Further, the “weight loss, toxic effect” value in data set [8] (weekly intravenous dose of 20 mg/kg, 21-day test period) is “No weight loss, nor toxic effect”.

B2: OMTX105 antibody-drug conjugate (anti-FAP IgG antibody conjugated with the drug-linker vcMMAE) (antibody, V domains shown)
VH: QVQLVQSGAEVKKPGASVKVSCKASGYTFTENIIHWVRQAPGQGLEWMGWFHPGSGSIKYNEKFKDRVTMTADTSTSTVYMELSSLRSEDTAVYYCARHGGTGRGAMDYWGQGTLVTVSS
VL: DIQMTQSPSSLSASVGDRVTITCRASKSVSTSAYSYMHWYQQKPGKAPKLLIYLASNLESGVPSRFSGSGSGTDFTLTISSLQPEDFATYYCQHSRELPYTFGQGTKLEIKR
modifications: drug-linker vcMMAE on cysteine residues of the antibody (non-site specific, thiol-based); DAR 3.92; the cysteines are not stated
notes: also called OMTX105 ADC; anti-FAP MMAE ADC
B2 yielded an EC50 in [9] of 0.255 nM. In addition, in data set [10], the “Specificity ratio between HT1080WT and HT1080FAP (cell viability assay)” value was found to be 1200.
